Assay results as given in US20170283830A1.

Target: CD117 (mast/stem cell growth factor receptor, proto-oncogene c-Kit protein) on CD117+ mouse bone marrow cells (mouse) (UniProt P05532)
Test: cell-based or functional assay

Chain of UniProt P05532 (P05532 25-979): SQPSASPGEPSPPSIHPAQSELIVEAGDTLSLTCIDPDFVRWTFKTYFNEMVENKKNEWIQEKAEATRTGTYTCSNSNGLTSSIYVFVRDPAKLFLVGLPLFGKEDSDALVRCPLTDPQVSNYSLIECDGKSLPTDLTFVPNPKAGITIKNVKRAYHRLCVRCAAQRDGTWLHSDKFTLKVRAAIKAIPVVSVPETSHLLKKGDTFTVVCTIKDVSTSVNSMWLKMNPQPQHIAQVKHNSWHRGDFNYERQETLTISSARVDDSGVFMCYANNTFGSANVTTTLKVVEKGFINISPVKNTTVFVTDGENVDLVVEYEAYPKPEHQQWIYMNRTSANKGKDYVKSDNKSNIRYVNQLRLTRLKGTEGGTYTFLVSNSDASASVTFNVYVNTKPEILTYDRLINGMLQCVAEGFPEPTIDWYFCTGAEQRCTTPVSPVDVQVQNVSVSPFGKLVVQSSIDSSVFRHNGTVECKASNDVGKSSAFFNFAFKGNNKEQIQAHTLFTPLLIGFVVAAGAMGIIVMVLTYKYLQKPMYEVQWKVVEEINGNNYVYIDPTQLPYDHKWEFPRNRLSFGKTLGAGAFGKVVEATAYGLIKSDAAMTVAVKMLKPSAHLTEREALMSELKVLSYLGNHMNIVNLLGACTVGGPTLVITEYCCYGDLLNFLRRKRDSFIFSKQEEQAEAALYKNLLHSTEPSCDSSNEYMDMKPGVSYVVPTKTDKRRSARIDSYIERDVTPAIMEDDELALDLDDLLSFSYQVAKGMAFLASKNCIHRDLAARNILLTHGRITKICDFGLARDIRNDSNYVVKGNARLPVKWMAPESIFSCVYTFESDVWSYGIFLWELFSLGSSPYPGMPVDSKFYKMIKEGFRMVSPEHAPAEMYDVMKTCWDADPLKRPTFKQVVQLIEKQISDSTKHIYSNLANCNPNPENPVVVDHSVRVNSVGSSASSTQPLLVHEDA

HDR activity in CD117+ cells (recombination between reporter gene constructs): 2 fold | γtcPNA4/donor DNA-mediated gene editing in CD117+ cells (% GFP expressing cells, flow cytometry): 15%
Substance: Recombinant murine SCF, catalog #250-03, PeproTech (from UniProt P20826 26-189) (ligand)
